Data on three molecules can be found in US20130102031A1.

The target of test [1] is βNGF (human) (UniProt P01138). The test can be described thus: HTRF competition: test antibody titrated against biotinylated Tanezumab (Streptavidin-XL665) for cryptate-labelled βNGF, 665 nm/620 nm ratio, three parameter fit. (Time-resolved FRET reads energy transfer from a long-lived donor to a nearby acceptor.)
In the next test the target is T1, human IL-17a (human) (UniProt Q16552).
T1 sequence (looked up): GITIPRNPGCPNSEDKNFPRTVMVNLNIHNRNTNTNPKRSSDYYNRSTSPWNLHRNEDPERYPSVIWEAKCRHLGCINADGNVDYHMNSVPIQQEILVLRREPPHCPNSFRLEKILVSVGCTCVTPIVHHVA
The test is described as follows: KinExA 3000 solution equilibrium, N-curve analysis; human IL-17a on beads.

In test [2] the target is βNGF (human) (UniProt P01138). The test can be described thus: HTRF competition; test antibody titrated against biotinylated Tanezumab for labeled βNGF.

Chain of UniProt P01138 (P01138 122-239 limits assumed): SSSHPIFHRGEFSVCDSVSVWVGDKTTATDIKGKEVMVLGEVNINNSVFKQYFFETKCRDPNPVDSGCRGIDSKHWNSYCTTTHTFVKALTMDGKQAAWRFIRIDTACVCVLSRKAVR

NEG CNT (antibody): the IC50 with βNGF (human) [1] worked out at 4910 nM.

B1: anti-IL17a antibody containing the HC lacking the CDR3 insertion (encoded by SEQ ID NO: 29) (antibody, part only; not given: light chain and constant region, V domains shown, part only)
VH: EVQLVESGGGLVQPGGSLRLSCAASGFTFSNHWMNWVRQTPGKGLEWVAAINEDGSEKYYVGSVKVRFTISRDNAKNSLYLQMNSLRVEDTAVYYCARDYYDILTDYYIHYWYFDLWGRGTLVTVSSASTKGPSVFPLAP
B1: the Kd in the test with human IL-17a (human) was found to be 0.067 nM.

B2: anti-NGF antibody containing the HC with a CDR1 insertion encoded by SEQ ID NO: 19 (antibody, part only; not given: light chain and constant region, V domains shown, part only)
VH: QVQLVQSGAEVKKPGSSVKVSCKASGDTFSNYATGDTFSNYAISWVRQAPGQGFEWMGGIIPIFGIANYAQKFQGRVTITADESTSTAYMELSSLRSEDTAVYYCARGPEYYDYVWGSYRYNYFDYWGQGTLVTVSS
In turn, B2 had a fold more potent IC50 than the HC encoded by SEQ ID NO: 16 in the test with βNGF (human) [2] of 6 fold. Further, the IC50 with βNGF (human) [1] was determined as 181 nM.

For orientation: IC50 means the concentration that inhibits the measured activity by half. In general, Kd refers to the constant that tells how readily two partners part at equilibrium. Higher therefore signals lower affinity.
